Test results reported in patent US20100279930A1 (published 2010).

Target: human Y4 receptor (human, UniProt P50391 1-375)
Experiment: 125I-PP displacement

Chain of human Y4 receptor (P50391 whole entry): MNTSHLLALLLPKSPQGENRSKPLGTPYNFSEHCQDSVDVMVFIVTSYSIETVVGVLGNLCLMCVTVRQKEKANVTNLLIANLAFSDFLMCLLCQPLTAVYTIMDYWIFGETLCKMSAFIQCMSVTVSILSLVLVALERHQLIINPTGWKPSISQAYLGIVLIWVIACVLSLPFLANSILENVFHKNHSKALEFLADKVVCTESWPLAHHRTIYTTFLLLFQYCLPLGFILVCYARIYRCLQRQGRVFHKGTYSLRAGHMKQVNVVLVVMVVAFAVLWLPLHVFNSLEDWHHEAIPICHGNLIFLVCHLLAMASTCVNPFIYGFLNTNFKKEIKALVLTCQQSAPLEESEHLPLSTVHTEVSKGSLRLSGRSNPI

Binder	IC50
APLEPVYPGDNATPEQMNRYYASLRHYLNLVTRPRY [4054985]	0.17 nM
APLEPVYPGDNATPEQMAQYYASLQHYLNLVTRPRY [4055246]	0.46 nM
PLEPFYPGDDATPQQMAQYAAALRRYINMLTRPRY [4055287]	0.5 nM
APLEPVYPGDNATPEQNLAQYAADLRRYINMLTRPRY [4055398]	0.15 nM
KPLEPVYPGDDATPQQMAQYAAELRRYINMLTRPRY [4055197]	0.62 nM
KPLEPVYPGDDATPQQMAQYAAELRRYINMLTRPRY [4055196]	0.33 nM
PAPLEPEYPGDDATPQQMARYAAELRRYINFLTRPRY [7257]	0.142 nM
APLEPEYPGDDATPEQMAEYAADLRRYINMLTRPRY [4055407]	0.29 nM
APLEPVYPGDNATPEQMAQYAADLRRYINMLTRPHY [4054987]	0.72 nM
APLEPVYPGDNATPEQMAQYAADLRRYIDMLTRPRY [4055403]	0.5 nM
APLEPVYPGDNATPEQMAQYAADLRRYINLLTRPRY [4055399]	0.28 nM
APLEPVYPGDNATPEQMAQYAADLRRYINMLTRPMY [4054976]	1.4 nM
APLEPVYPGDNATPEQMAQYAADLRRYINMLTRPQY [4054977]	1.8 nM
APLEPVYPGDNATPEQMAKYAADLRRYINMLTRPRY [compound of SEQ ID NO:224 (Lys 19, code 4055291)]	0.32 nM
APPEPVYPGDDATPEQMAEYVADLRRYINMLTRPRY [4055405]	0.24 nM
APLEPVYPGDNATPEQMAQYAADLMRYINMLTRPRY [4054981]	0.38 nM
APLEPVYPGDDATPQQMAQYYAELRHYLNLVTRPRY [4055248]	0.38 nM

The next lines start with the values.

IC50	Binder
0.099 nM	PAPLEPTYPGDNATPEQMAKYAAALRRYINMLTRPRY [7250]
0.091 nM	PAPLEPKYPGDDATPQQMARYAAELRRYINKLTRPRY [7255]
0.082 nM	PAPLEPTYPGDNATPEQMAKYAAELRRYINKLTRPRY [7252]
0.132 nM	PAPLEPEYPGDDATPQQMARYAAELRRYINILTRPRY [7256]
0.109 nM	PAPLEPEYPGDNATPEQMARYAAELRRYINKLTRPRY [7254]
0.068 nM	PAPLEPTYPGDDATPQQMARYAAELRRYINKLTRPRY [7258]
0.14 nM	APLEPVYPGDNATPEQMARYAAALRRYINMLTRPRY [7242]
